# Results published in the nanobody polyreactivity screen of Harvey et al. (2022).
# Experiment: yeast display, Sf9 membrane polyspecificity reagent, FACS + sequencing; frameworks hold sequencing errors
# Procedure, shortened: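 A nanobody's polyreactivity label depends on the gate it was sorted from. Yeast display cells were stained with 10% biotinylated, detergent-solubilized Sf9 membrane reagent for 1 hour at 4 °C, enriched on streptavidin microbeads and sorted by FACS. The low and high (top ~1%) gates were set on anti-HA fluorescence for expression and streptavidin fluorescence for reagent binding.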
row,Sequence,polyreactivity (PSR sort gate)
1,QVQLEESGGGLVQAGGSLRLSCAASGRTFYRYAMGWYRQAPGKERELVAAITWSGGSTYYADSVKGRFTTSRDNAKNTVYLQMNSLKPEDTAVYYCARRLYPYRPTAYDYWGQGTQVTVSS,low polyreactivity
2,QVQLVDSGGGLDQAGGSLRLSCAASGSNLRLKAMGWYRQAPGKERELVADITRAGSTYYADSVKGRFTISRDNAKNTVYLQMNSLKPEDTAVYYCAADAYTGQIPYYYFEHYYWGHGTQVTVSS,high polyreactivity
3,QVQLVESGGGLVQAGGSLRLSCAASGFIFSTYAMGWYRQAPGKERELVAAITRGGRTYYADSVKGRFTISRDNAKNTVYLQMNSLIPEDTAVYYCAVFVHGDYWGQGTQVTVSS,high polyreactivity
4,QVQLVESGGGLVQAGGSLRLSCAASGRIFLFYAMGWYRQAPGKESELVAAISVRGGSTYYADSVKGRFTISRDNAKNTVYLQMNSLKPEDTAVYYCAADYPKTYTSKFNYWGQVTQVTVSS,high polyreactivity
5,QVQLVESGGGLVQAGGSLRLSCAASGSTFASNAMGWDRQAPGKERELVAVITWRGDRTYYADSVKGRFTISRDNAKNTVYLQMNSLKPEDTAVYYCAADAYRRYGVGWEDYWGQGTQVTVSS,high polyreactivity
6,QVQLVESGGGLVQAGGSLRLSCAASGRIFGVNAMGWYRQAPGKERELVAAINYSGGRTSYADSVKGRFTISRDHAKNTVYLQMNSLKPEDTAVYYCAKYGLRGGYLYYYWGQGTQVTVSS,high polyreactivity
7,QVQLVESGGGLVQAGGSLRLSCAASGRIFGHYARGWYRQAPGKERELVAAITSGGRTYYADSVKGRFTISRDNAKNTVYLQMNSLKPEDTAVYYFNVRVFVGLQPFGYWGQGTQVTVSS,high polyreactivity
8,QVQLVESGGGLVQAGGSLRISCAASGRTFRFYVMGWYRKAPGKERELVAAISRGGGSTYYADSVKGRFTISRDNAKNTVYLQMNSLKPEDTAVYYCNAVTSGKKYVADYNYWGQGTQVTVSS,high polyreactivity
9,QVQLVESGGGLVQAGGSLRLSCAASGIIFDDNAMGWYRQAPGKERELVAAISSGSTTNYADSVKGRFTISRDNEKNTVYLQMTSLKPEDTAVYYCAAVDGLAFDYWGQGTQVTVSS,low polyreactivity
10,QVQLVESGGGLVQAGCSLRLSCAASGFTFGSYAMGWYRQAPWKEREFVAAIRRSGSSTYYADSVKGRFTISRDNAKNTVYLQMNSLKPEDTAVYFCAADVYRRLRRYRYYYLGQGTQVTVSS,low polyreactivity
11,QVQLVESGGGLVQAGGSLRFSCAASGSIFDYYAMGWYRQAPGKERELVASITWSGGRTSYADSVKGRFTISRDNAKNTVYLQMNSLKPEDTAVYYCAAKLWSYAYQHKRVWYYYWGQGTQVTVSS,high polyreactivity
12,QVQLQESGGGLVQAGGCLRLRCAASRNISGSSDLGWYHQAPGKEREFVASMTSGGTTYYADSVKGRFTISRDNAKYTVYLQMKSQKTEDTAVYYCAVGDPADAEFGYWGQGTQVTVSS,low polyreactivity
13,QVQLVESGGGLVQAGGSLRLSCAATGSIIQWNAMGWYRQAPGKERELVAAISWSGTRTYFADSVKGRFTISRDNAKNTVYLQMNSLKPEDTAVYYCAFRGGKPTYRYDYWGQGTQVTVSS,high polyreactivity
14,QVQLVESGGGLVQAGGSLRLSCAASGIIFYIYAMGWYRQAPGKERELVAAITSSGGSTNYADSVKGRFTISRDNAKNTVYLQMNSLKPEDTAVYYCAAAYRPWQEFYWGQGTQVTVSS,high polyreactivity
15,QVQLVESGGGLVQAGGSLRLSCAASGSTFTWYAMGWYRQAPGKERELVAAISWSGDSTYYADSVKGRFTISRDNAKNTVYLQMNSLKPEDTAVYYCAAENVYGYDYWGQGTQVTVSS,high polyreactivity
16,QVQLVESGGGLVQAGGSLRLSCAASGRTFLINAMGWYRQAPGKERELVAGINRNGGTTYYADSVKGRFTISRDNAKNTVYLQMNSLKPEDTAVYYCAKRYPSWFNYWGQGTQVTVSS,high polyreactivity
17,QVQLVESVGGLVQAGGSLRLSCAASGRTFNYYARGWYRQAPGKERELVAAISWSGTPTYYADSVKGRFTISRDNAKNTVYLQMNSLKPEDTAVYYCAAYLVSYPRGNYIRYDYWGQGTQVTVSS,low polyreactivity
18,QVQLVESGGGLVQAGGSLRLSCGASGSTFWWNAMGWYRQAPGKEREFVAAITARGTSTYYADSVKGRFTISRDNAKNTVYLQMNRLKPEDTAVYYCNTRLYGRYYSWYDYWGQGTQVTVSS,high polyreactivity
19,QVQLVESGGRLVQAGGSLRLSCAASGRILRYYALGWYRQAPGKERELVASISRGGSTYYADSVKGRFTISRDNAKNTVYLQMNSLKPEDTAVYDCATEVRRSTREFGYWGQGTQVTVSS,high polyreactivity
20,HVQLVESGGGLVQAGGSLRLSCAASGRTFVNNAMGWYRQAPGKERELVAAISQSGSRTYYADSVKGRFTISRDNAKNTVYLQMNSLKPEDTAVYYCAARGARYSTSDYWGQGTQVTVSS,high polyreactivity
21,QVQLVESGGGLVQAGGSLRLSCAASGSIFSVYVMGWYRPAPGKERELVATISSGGGTYYADSVKGRFTISRDNAKNTVYLQMNSLKPEDTAVYYCYADWDDWKGDYWGQGTQVTVSS,low polyreactivity
22,QVQLVESGGGLVQAGGSLRLSCAASGFTFNRYAMGWYRQAPGKERELVAAISRSTATTYYADSVKGRFTISRDNAKNTVYLQMNSLKPEDTAVYYCNAPQRYWPPYGYWGQGTQVTVSS,high polyreactivity

row,Sequence,polyreactivity (PSR sort gate)
1,QVQLVESGGGLVQAGGSLRLSCAASGLTIWANTKGWYRQAPGKERELVAAISLSDGSTYYADSVKGRFTISRDNAKNTVYVQMNSLKPEDTAVYYCAARVQHYLATDDYWGQGTQVTVSS,low polyreactivity
2,QVQLVESGGGLVQAGGSLRLSCAASGRTFRGYAMGWYRQAPGKERELVAAINFSAGITYYADSVKGRFTISRDNAKNTVYLQMNSLKPEDTAVYYCAAEPEWWWRGYGYWGQGTLVTVSS,low polyreactivity
3,QVQLVESGGGLVQAGGSLRLSCAASGRIVSHYAMGWYRQAPGKERELVAAISRSGSTYYADSVKGRFTISRDNAKNTVYLQMNSLKPEDTAVYYCATRLYTVGPYGYWGQGTQVTVSS,low polyreactivity
4,QVQLVESGGGLVQAGGSLRLSCAASGSTSYRNAMGWYRQAPGIEREFVAAISWSGGSTYYADSVKGRFTISRDNAKNTVYLQMNSLKPEDTAVYYCATTVTQWGQGTQVTVSS,low polyreactivity
5,QVQLVESGGGLVQAGGSRRLSCAGSGSTVTGYAMGWYRQAPGKDRELVAAISSRGGSTYYADSVKGRFTISRDNAKTTVYLQMNSLKPEDTAGYYCATSYKSEQYHGKPFYYWGQGTQVTVSS,high polyreactivity
6,QFQLVESGGGLVQAGGILRLSCAASGRIFKYYAMGWYRQEPGKERELVAAISRGGSTYYADSVKGRFTISRDNAKNTVYLQMNSLKPEDSAVYYCNAYRHGYVAYRRYDYWGQGTQVTVSS,high polyreactivity
7,QEQLQEIGGRLEQAGGSLRLSCAASGYITYIGTMGWYRHAPGKEREFVATIVVGSTTNYADSVKGRFTISRDNAKNTVYLQPESGRYRGVLLRGWLLAVGKFTYWGQGTQETVSS,low polyreactivity
8,QVQLVESGGGLVQAGGSLRLSCAASGSTFSRNAMGWYRQAPGKERELVAAISRRGDTTYYADSVKGRFTISRDNAKNTVYLQMNSLKPEDTAVYYCNRLTIGSSSYDYWGQGTQVTVSS,high polyreactivity
9,QVQLVESGGGLVQAGGSLRLSCAASGFIYGTYAMGWYRQAPGKEREFVAAITRSGSSTYYADSVKGRFTISRDNAKNTVYLLMNSLKPEDTAVYYCAADLTRGRFRYYYWGLGTQVTVSS,high polyreactivity
10,QVQLVESGGGLVQAGGSLRLSCAASGSTFRRYAMGWYRQAPWKERELVAAITRRGITYYADSVKGRFTISRDNAKNTVYFQMNSLKPEDTAVYYCAATTFGPYALYPRYYYWGQGTQVTVSS,high polyreactivity
11,QVQLVESGGGYVQAGGSLRLSCAASGSTFKGYAMGLYRQAPGKEMELVAAITWIGGSTTYADSVKGRFTISCDNAKNTVYLQMNSLKPEDTAVYYCAADNFWYFLSATEDYWGQGTQVTVSS,low polyreactivity
12,QVQLVESGGGLVQAGGSLRLSCAASGSTFSWYAMGWYRQAPGKERELVASISFSGGDTSYADSVKGRFTISRDNAKNTVYLQMHSLKPEDSAVYYCGKEYKYETDTKFDYWGQGTQVTVSS,low polyreactivity
13,QVQLVESGGGLVQAGGSLRLSCAASGSTFGGYSMGWYRQAPGKERELVAAITYSGGSTYYADSVKGRFTISGDIAQNTVYLQMKSLKPEDTAFYYCNADDDDALPWWWPYVLDVDYWGQGTQVTVSS,low polyreactivity
14,QVQLVESGGGLVQAGGSLRLSCAASGRIFYIYAMGWYRQAPGKERELVAAISSGGTTNYADSVKGRFTISRDNAKNTVYLQMNSLKPEDTAVYYCAAYWRSRNRFYWGQGTQVTVSS,high polyreactivity
15,QVQLVESGGCLVQAGGSLRLICAASGRIIDRNAMGWYRHAPGKERELVAAISSSGSTYYADSVKGRFTISRDNAKITVYLQMNSLKPEDTAVYYCNKRARHSGDFVWGHGYWGQGTQVNVSS,low polyreactivity
16,QVQLVESGGGLVPAGGSLRLSCAASGSIFGKNAMGSYRQAPGNERELVAAITRRGGSTYYADSVKGRFTISRDNAKNTVYLQMNSLKAEDTAVYYCAAVSHYPAGYDYWGQGTQVTVSS,high polyreactivity
17,QVQLVESGGGLVHAGGRLRLSCAASGRIFFYYAMGWYRQAPGKERELVAAISQSGGSTYYADSVKGRFTISRDNAKNTVYLQMNSLKPEDTSVYYCNAADPYYVTSAVAGDYWGQGTQVTVSS,low polyreactivity
18,QGQLVESGGGLVQAGGSLRLSCAASGFTFTRNTMGWYRQAPGKERELVAAITRGGSTNYADSVKGRFTISRDNAKNTVYLQLNSLKPEDTAVYYCNKGRNVVLVRTADDYWGQGTQVTVSS,low polyreactivity
19,QVQLEESGGGLVQAGGSLRLSFAASGRTFWWYAMGWYRQAPGKERELVAAITWSGGSTYYADSVKGRFTISRDNAKNTVYLQMNSLKPEDTAVYYCAAYVHNKYDYWGQGTQVTVSS,low polyreactivity
20,QVQLVESGGGIVQAGGSLRLSCAASGLTFQVNAMGWYRQAPGKERELVAGITFSGGSTYYADSVKGRFTISRDNAKNTVYLQMNSLKPEDTAVYYCAADARFYAYYYWGQGTQVTVSS,low polyreactivity
21,QVQLQESGGDLEQAGGSLRLSCTASGTISDVRDMGWYRQAPGKERELVATISYVTITYYSDSVKGRFTISRASEKHRVSADDEPETGRYRGVLLRYYWGLGTQVTVSS,low polyreactivity
